A short description of series [1]: physchem. The settings on record: buffer A (phosphate buffer), pH 7.4.
Description: In vitro linker hydrolysis and release of drug: Compounds were dissolved in buffer A (10 mM sodium phosphate, 140 mM NaCl, pH 7.4, 3 mM EDTA) or buffer B (0.1 M Acetat 3 mM EDTA, pH 4.0), and solution was filtered through a 0.2 μm filter and incubated at 37° C. Samples were taken at time intervals and analyzed by RP-HPLC at 215 nm and ESI-MS. UV-signals correlating to liberated drug molecule were integrated and plotted against incubation time. In case of identical retention times of prodrug and drug, ratio of mass signals was used to determine release kinetics.
For hydrogel conjugates, compounds were suspended in buffer A and incubated at 37° C. Samples were taken after centrifugation of the suspension and analyzed by RP-HPLC at 215 nm. UV-signals correlating to liberated drug molecule were integrated and plotted against incubation time.
Curve-fitting software was applied to estimate the corresponding halftime of release.
The conditions of series [2]: human, in vivo; cited from earlier work.

As usually defined, the half-life is the time needed for the level to fall by half in the phase considered. Lower therefore signals rapid decline.

Take `CCCCCCCCCCCC(=O)NC(CCCCNC(=O)CCOCCOCCOCCOCCOCCOCCOCCOCCOCCOCCOCCOCCNC(=O)CCN1C(=O)CC(SCCNC(=O)CN2CCN(CCNC(=O)[C@@H]3CCCC[C@@H]3C(=O)N3CCN(C4=Nc5ccccc5Oc5ccc(Cl)cc54)CC3)CC2)C1=O)C(N)=O` (some centres unmarked) [Compound 5]: in series [1], the half-life was 22 h.

Turning to “Exendin-4: GLP-1 receptor agonist peptide; high potency agonist at the glucagon-like peptide 1-(7-36)-amide receptor”, the Plasma half-life in series [2] was 0.433 h.

The values are drawn from patent US20170100490A1, “Prodrug Comprising a Drug Linker Conjugate” (Ascendis Pharma A/S, priority 2008, published 2017).
